Test results from patent US20220168396A1, “MULTI-RECEPTOR AGONIST AND MEDICAL USE THEREOF” (published 2022).
Square brackets hold non-standard residues; d marks the D form. Ends that are not written are not given here. Aib = CC(C)(N)C(=O)O

T1: human glucose-dependent insulinotropic peptide receptor (human, UniProt P48546)
T1 sequence: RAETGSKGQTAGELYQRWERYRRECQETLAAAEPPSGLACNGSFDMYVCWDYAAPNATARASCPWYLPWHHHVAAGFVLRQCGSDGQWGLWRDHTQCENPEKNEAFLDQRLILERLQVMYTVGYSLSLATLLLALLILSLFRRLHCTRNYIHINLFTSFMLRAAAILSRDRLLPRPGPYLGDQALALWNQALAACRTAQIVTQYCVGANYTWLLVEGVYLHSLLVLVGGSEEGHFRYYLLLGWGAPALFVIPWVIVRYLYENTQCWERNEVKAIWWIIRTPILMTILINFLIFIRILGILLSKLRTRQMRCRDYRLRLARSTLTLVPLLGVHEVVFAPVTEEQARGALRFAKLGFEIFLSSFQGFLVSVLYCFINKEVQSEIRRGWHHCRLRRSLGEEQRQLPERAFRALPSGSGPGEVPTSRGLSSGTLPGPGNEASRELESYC

B1: Compound No. 16 (peptide)
peptide: Y[Aib]EGTFTSDYSIYLEKE[Aib]AKEFVNWLLAGGPSSGAPPPSK-NH2
modifications: N-terminus assumed
SMILES: CC[C@H](C)[C@H](NC(=O)[C@H](CO)NC(=O)[C@H](Cc1ccc(O)cc1)NC(=O)[C@H](CC(=O)O)NC(=O)[C@H](CO)NC(=O)[C@@H](NC(=O)[C@H](Cc1ccccc1)NC(=O)[C@@H](NC(=O)CNC(=O)[C@H](CCC(=O)O)NC(=O)C(C)(C)NC(=O)[C@@H](N)Cc1ccc(O)cc1)[C@@H](C)O)[C@@H](C)O)C(=O)N[C@@H](Cc1ccc(O)cc1)C(=O)N[C@@H](CC(C)C)C(=O)N[C@@H](CCC(=O)O)C(=O)N[C@@H](CCCCN)C(=O)N[C@@H](CCC(=O)O)C(=O)NC(C)(C)C(=O)N[C@@H](C)C(=O)N[C@@H](CCCCN)C(=O)N[C@@H](CCC(=O)O)C(=O)N[C@@H](Cc1ccccc1)C(=O)N[C@H](C(=O)N[C@@H](CC(N)=O)C(=O)N[C@@H](Cc1c[nH]c2ccccc12)C(=O)N[C@@H](CC(C)C)C(=O)N[C@@H](CC(C)C)C(=O)N[C@@H](C)C(=O)NCC(=O)NCC(=O)N1CCC[C@H]1C(=O)N[C@@H](CO)C(=O)N[C@@H](CO)C(=O)NCC(=O)N[C@@H](C)C(=O)N1CCC[C@H]1C(=O)N1CCC[C@H]1C(=O)N1CCC[C@H]1C(=O)N[C@@H](CO)C(=O)N[C@@H](CCCCN)C(N)=O)C(C)C
B2: Compound No. 13 (peptide)
peptide: Y[Aib]EGTFTSDYSIYLEKIAAKEFVNWLLAGGPSSGAPPPSK-NH2
modifications: N-terminus assumed
SMILES: CC[C@H](C)[C@H](NC(=O)[C@H](CCCCN)NC(=O)[C@H](CCC(=O)O)NC(=O)[C@H](CC(C)C)NC(=O)[C@H](Cc1ccc(O)cc1)NC(=O)[C@@H](NC(=O)[C@H](CO)NC(=O)[C@H](Cc1ccc(O)cc1)NC(=O)[C@H](CC(=O)O)NC(=O)[C@H](CO)NC(=O)[C@@H](NC(=O)[C@H](Cc1ccccc1)NC(=O)[C@@H](NC(=O)CNC(=O)[C@H](CCC(=O)O)NC(=O)C(C)(C)NC(=O)[C@@H](N)Cc1ccc(O)cc1)[C@@H](C)O)[C@@H](C)O)[C@@H](C)CC)C(=O)N[C@@H](C)C(=O)N[C@@H](C)C(=O)N[C@@H](CCCCN)C(=O)N[C@@H](CCC(=O)O)C(=O)N[C@@H](Cc1ccccc1)C(=O)N[C@H](C(=O)N[C@@H](CC(N)=O)C(=O)N[C@@H](Cc1c[nH]c2ccccc12)C(=O)N[C@@H](CC(C)C)C(=O)N[C@@H](CC(C)C)C(=O)N[C@@H](C)C(=O)NCC(=O)NCC(=O)N1CCC[C@H]1C(=O)N[C@@H](CO)C(=O)N[C@@H](CO)C(=O)NCC(=O)N[C@@H](C)C(=O)N1CCC[C@H]1C(=O)N1CCC[C@H]1C(=O)N1CCC[C@H]1C(=O)N[C@@H](CO)C(=O)N[C@@H](CCCCN)C(N)=O)C(C)C
B3: Compound No. 15 (peptide)
peptide: Y[Aib]EGTFTSDYSIYLEKIAQKEFVNWLLAGGPSSGAPPPSK-NH2
modifications: N-terminus assumed
SMILES: CC[C@H](C)[C@H](NC(=O)[C@H](CCCCN)NC(=O)[C@H](CCC(=O)O)NC(=O)[C@H](CC(C)C)NC(=O)[C@H](Cc1ccc(O)cc1)NC(=O)[C@@H](NC(=O)[C@H](CO)NC(=O)[C@H](Cc1ccc(O)cc1)NC(=O)[C@H](CC(=O)O)NC(=O)[C@H](CO)NC(=O)[C@@H](NC(=O)[C@H](Cc1ccccc1)NC(=O)[C@@H](NC(=O)CNC(=O)[C@H](CCC(=O)O)NC(=O)C(C)(C)NC(=O)[C@@H](N)Cc1ccc(O)cc1)[C@@H](C)O)[C@@H](C)O)[C@@H](C)CC)C(=O)N[C@@H](C)C(=O)N[C@@H](CCC(N)=O)C(=O)N[C@@H](CCCCN)C(=O)N[C@@H](CCC(=O)O)C(=O)N[C@@H](Cc1ccccc1)C(=O)N[C@H](C(=O)N[C@@H](CC(N)=O)C(=O)N[C@@H](Cc1c[nH]c2ccccc12)C(=O)N[C@@H](CC(C)C)C(=O)N[C@@H](CC(C)C)C(=O)N[C@@H](C)C(=O)NCC(=O)NCC(=O)N1CCC[C@H]1C(=O)N[C@@H](CO)C(=O)N[C@@H](CO)C(=O)NCC(=O)N[C@@H](C)C(=O)N1CCC[C@H]1C(=O)N1CCC[C@H]1C(=O)N1CCC[C@H]1C(=O)N[C@@H](CO)C(=O)N[C@@H](CCCCN)C(N)=O)C(C)C
B4: Compound No. 11 (peptide)
peptide: Y[Aib]EGTFTSDYSIYLEKEAQKEFVNWLLAGGPSSGAPPPSK-NH2
modifications: N-terminus assumed
SMILES: CC[C@H](C)[C@H](NC(=O)[C@H](CO)NC(=O)[C@H](Cc1ccc(O)cc1)NC(=O)[C@H](CC(=O)O)NC(=O)[C@H](CO)NC(=O)[C@@H](NC(=O)[C@H](Cc1ccccc1)NC(=O)[C@@H](NC(=O)CNC(=O)[C@H](CCC(=O)O)NC(=O)C(C)(C)NC(=O)[C@@H](N)Cc1ccc(O)cc1)[C@@H](C)O)[C@@H](C)O)C(=O)N[C@@H](Cc1ccc(O)cc1)C(=O)N[C@@H](CC(C)C)C(=O)N[C@@H](CCC(=O)O)C(=O)N[C@@H](CCCCN)C(=O)N[C@@H](CCC(=O)O)C(=O)N[C@@H](C)C(=O)N[C@@H](CCC(N)=O)C(=O)N[C@@H](CCCCN)C(=O)N[C@@H](CCC(=O)O)C(=O)N[C@@H](Cc1ccccc1)C(=O)N[C@H](C(=O)N[C@@H](CC(N)=O)C(=O)N[C@@H](Cc1c[nH]c2ccccc12)C(=O)N[C@@H](CC(C)C)C(=O)N[C@@H](CC(C)C)C(=O)N[C@@H](C)C(=O)NCC(=O)NCC(=O)N1CCC[C@H]1C(=O)N[C@@H](CO)C(=O)N[C@@H](CO)C(=O)NCC(=O)N[C@@H](C)C(=O)N1CCC[C@H]1C(=O)N1CCC[C@H]1C(=O)N1CCC[C@H]1C(=O)N[C@@H](CO)C(=O)N[C@@H](CCCCN)C(N)=O)C(C)C
B5: Compound No. 14 (peptide)
peptide: Y[Aib]EGTFTSDYSIYLEKIAAQEFVNWLLAGGPSSGAPPPSK-NH2
modifications: N-terminus assumed
SMILES: CC[C@H](C)[C@H](NC(=O)[C@H](CCCCN)NC(=O)[C@H](CCC(=O)O)NC(=O)[C@H](CC(C)C)NC(=O)[C@H](Cc1ccc(O)cc1)NC(=O)[C@@H](NC(=O)[C@H](CO)NC(=O)[C@H](Cc1ccc(O)cc1)NC(=O)[C@H](CC(=O)O)NC(=O)[C@H](CO)NC(=O)[C@@H](NC(=O)[C@H](Cc1ccccc1)NC(=O)[C@@H](NC(=O)CNC(=O)[C@H](CCC(=O)O)NC(=O)C(C)(C)NC(=O)[C@@H](N)Cc1ccc(O)cc1)[C@@H](C)O)[C@@H](C)O)[C@@H](C)CC)C(=O)N[C@@H](C)C(=O)N[C@@H](C)C(=O)N[C@@H](CCC(N)=O)C(=O)N[C@@H](CCC(=O)O)C(=O)N[C@@H](Cc1ccccc1)C(=O)N[C@H](C(=O)N[C@@H](CC(N)=O)C(=O)N[C@@H](Cc1c[nH]c2ccccc12)C(=O)N[C@@H](CC(C)C)C(=O)N[C@@H](CC(C)C)C(=O)N[C@@H](C)C(=O)NCC(=O)NCC(=O)N1CCC[C@H]1C(=O)N[C@@H](CO)C(=O)N[C@@H](CO)C(=O)NCC(=O)N[C@@H](C)C(=O)N1CCC[C@H]1C(=O)N1CCC[C@H]1C(=O)N1CCC[C@H]1C(=O)N[C@@H](CO)C(=O)N[C@@H](CCCCN)C(N)=O)C(C)C
B6: Compound No. 12 (peptide)
peptide: Y[Aib]EGTFTSDYSIYLE[Aib]EAAKEFVNWLLAGGPSSGAPPPSK-NH2
modifications: N-terminus assumed
SMILES: CC[C@H](C)[C@H](NC(=O)[C@H](CO)NC(=O)[C@H](Cc1ccc(O)cc1)NC(=O)[C@H](CC(=O)O)NC(=O)[C@H](CO)NC(=O)[C@@H](NC(=O)[C@H](Cc1ccccc1)NC(=O)[C@@H](NC(=O)CNC(=O)[C@H](CCC(=O)O)NC(=O)C(C)(C)NC(=O)[C@@H](N)Cc1ccc(O)cc1)[C@@H](C)O)[C@@H](C)O)C(=O)N[C@@H](Cc1ccc(O)cc1)C(=O)N[C@@H](CC(C)C)C(=O)N[C@@H](CCC(=O)O)C(=O)NC(C)(C)C(=O)N[C@@H](CCC(=O)O)C(=O)N[C@@H](C)C(=O)N[C@@H](C)C(=O)N[C@@H](CCCCN)C(=O)N[C@@H](CCC(=O)O)C(=O)N[C@@H](Cc1ccccc1)C(=O)N[C@H](C(=O)N[C@@H](CC(N)=O)C(=O)N[C@@H](Cc1c[nH]c2ccccc12)C(=O)N[C@@H](CC(C)C)C(=O)N[C@@H](CC(C)C)C(=O)N[C@@H](C)C(=O)NCC(=O)NCC(=O)N1CCC[C@H]1C(=O)N[C@@H](CO)C(=O)N[C@@H](CO)C(=O)NCC(=O)N[C@@H](C)C(=O)N1CCC[C@H]1C(=O)N1CCC[C@H]1C(=O)N1CCC[C@H]1C(=O)N[C@@H](CO)C(=O)N[C@@H](CCCCN)C(N)=O)C(C)C

Assays:
[1] = molecular target: human glucagon-like peptide-1 receptor (human, UniProt P43220); assay: cell-based or functional assay
[2] = molecular target: T1, human glucose-dependent insulinotropic …; assay: cell-based or functional assay

Binder	Activity for human GLP-1R (EC50 nM), cAMP HTRF [1] [nM]	Activity for human GIPR (EC50 nM), cAMP HTRF [2] [nM]
B1	0.007	0.018
B2	0.013	0.017
B3	0.015	0.009
B4	0.08	0.014
B5	0.008	0.006
B6	0.013	0.081
